{
  "source": "the RNAGym collection of RNA variant scans (doi:10.7554/elife.80360)",
  "parents": {"B1": {"name": "HDV Ribozyme (parent)", "chain": "GGCCGGCAUGGUCCCAGCCUCCUCGCUGGCGCCGGCUGGGCAACAUUCCGAGGGGACCGUCCCCUCGGUAAUGGCGAAUGGGACCCA"}},
  "data": [
    {"variants_of": "B1", "assay": "self-cleavage, relative activity (ratio to wild type); higher = more cleavage; co-transcriptional", "values": [
      {"variant": "A45G C58A", "self-cleavage": 1.18},
      {"variant": "A45G G76U", "self-cleavage": 1.12},
      {"variant": "A45G A83G", "self-cleavage": 0.95},
      {"variant": "U46A G52A", "self-cleavage": 0.776},
      {"variant": "U46A G52U", "self-cleavage": 0.596},
      {"variant": "A45C U79G", "self-cleavage": 0.293},
      {"variant": "A45C U79C", "self-cleavage": 0.0791},
      {"variant": "A45G C62A", "self-cleavage": 0.975},
      {"variant": "C44U C84U", "self-cleavage": 0.516},
      {"variant": "U46A C85U", "self-cleavage": 0.675},
      {"variant": "U46A C63A", "self-cleavage": 0.499},
      {"variant": "U46A C63U", "self-cleavage": 0.763},
      {"variant": "A45C U47C", "self-cleavage": 0.598},
      {"variant": "U46A C75U", "self-cleavage": 0.0665},
      {"variant": "U46A C75A", "self-cleavage": 0.151},
      {"variant": "C44U C66A", "self-cleavage": 0.677},
      {"variant": "C44U C66G", "self-cleavage": 0.895},
      {"variant": "A45G A87U", "self-cleavage": 0.911},
      {"variant": "C44U A77G", "self-cleavage": 0.923},
      {"variant": "A45U U79G", "self-cleavage": 0.506},
      {"variant": "A45U G76U", "self-cleavage": 0.652},
      {"variant": "U46A C61U", "self-cleavage": 0.61},
      {"variant": "A45U G53C", "self-cleavage": 0.778},
      {"variant": "A45U U60G", "self-cleavage": 0.643},
      {"variant": "C44G U46A", "self-cleavage": 0.9},
      {"variant": "C44U A87C", "self-cleavage": 0.618},
      {"variant": "A45U G74U", "self-cleavage": 0.305},
      {"variant": "C44U U69A", "self-cleavage": 0.787},
      {"variant": "C44U U69C", "self-cleavage": 0.814},
      {"variant": "U46A G74A", "self-cleavage": 0.519},
      {"variant": "C44U A56U", "self-cleavage": 0.748},
      {"variant": "A45U U72A", "self-cleavage": 0.831},
      {"variant": "A45U G50U", "self-cleavage": 0.793},
      {"variant": "U46A A78C", "self-cleavage": 0.131},
      {"variant": "A45G G53A", "self-cleavage": 0.991},
      {"variant": "A45U C57A", "self-cleavage": 0.906},
      {"variant": "C44G G73C", "self-cleavage": 0.655},
      {"variant": "A45G G80U", "self-cleavage": 0.151},
      {"variant": "C44U G80U", "self-cleavage": 0.148},
      {"variant": "C44U G80A", "self-cleavage": 0.125},
      {"variant": "A45U C64G", "self-cleavage": 0.671},
      {"variant": "A45C G74C", "self-cleavage": 0.0594},
      {"variant": "A45C G74A", "self-cleavage": 0.354},
      {"variant": "A45G C63G", "self-cleavage": 0.739},
      {"variant": "A45G C63U", "self-cleavage": 0.956},
      {"variant": "A45G U60G", "self-cleavage": 1.31},
      {"variant": "A45U A78U", "self-cleavage": 0.155},
      {"variant": "A45C A70U", "self-cleavage": 0.508},
      {"variant": "A45C A70C", "self-cleavage": 0.615},
      {"variant": "A45C A70G", "self-cleavage": 0.655},
      {"variant": "U46A G67A", "self-cleavage": 0.703},
      {"variant": "A45C A83C", "self-cleavage": 0.0615},
      {"variant": "A45C A83U", "self-cleavage": 0.356},
      {"variant": "U46A C66U", "self-cleavage": 0.743},
      {"variant": "A45U C84A", "self-cleavage": 0.446},
      {"variant": "C44U C63U", "self-cleavage": 0.806},
      {"variant": "A45C C64G", "self-cleavage": 0.649},
      {"variant": "A45U A70C", "self-cleavage": 0.95},
      {"variant": "A45G G59A", "self-cleavage": 1.06},
      {"variant": "C44U C57A", "self-cleavage": 0.672},
      {"variant": "A45G G54C", "self-cleavage": 0.65},
      {"variant": "C44U U60C", "self-cleavage": 0.872},
      {"variant": "A45G C66G", "self-cleavage": 0.811},
      {"variant": "A45G C66A", "self-cleavage": 0.812},
      {"variant": "A45G C66U", "self-cleavage": 0.92},
      {"variant": "C44G G81C", "self-cleavage": 0.306},
      {"variant": "C44U C58U", "self-cleavage": 0.755},
      {"variant": "A45C C85G", "self-cleavage": 0.609},
      {"variant": "U46A C86A", "self-cleavage": 0.958},
      {"variant": "U46A U69A", "self-cleavage": 1.08},
      {"variant": "A45G G74C", "self-cleavage": 0.332},
      {"variant": "A45G G74A", "self-cleavage": 0.517},
      {"variant": "C44U G81A", "self-cleavage": 0.224},
      {"variant": "A45U G55C", "self-cleavage": 0.956},
      {"variant": "A45U G55U", "self-cleavage": 0.698},
      {"variant": "U46A G82U", "self-cleavage": 0.119},
      {"variant": "C44U G73A", "self-cleavage": 0.946},
      {"variant": "A45C G67C", "self-cleavage": 0.731},
      {"variant": "A45U G80A", "self-cleavage": 0.205},
      {"variant": "C44U C62U", "self-cleavage": 0.443},
      {"variant": "C44U G54U", "self-cleavage": 0.799},
      {"variant": "C44U G54C", "self-cleavage": 0.694},
      {"variant": "C44U A45U", "self-cleavage": 0.787},
      {"variant": "A45C C58A", "self-cleavage": 0.519},
      {"variant": "A45C C58U", "self-cleavage": 0.831},
      {"variant": "C44U U47A", "self-cleavage": 0.743},
      {"variant": "A45G U47G", "self-cleavage": 0.767},
      {"variant": "A45C G50C", "self-cleavage": 0.504},
      {"variant": "A45C G73U", "self-cleavage": 0.193},
      {"variant": "A45C G73A", "self-cleavage": 0.528},
      {"variant": "A45C U72G", "self-cleavage": 1.11},
      {"variant": "A45C U72A", "self-cleavage": 0.89},
      {"variant": "A45U C66A", "self-cleavage": 0.812},
      {"variant": "A45U C66G", "self-cleavage": 0.919},
      {"variant": "A45U C66U", "self-cleavage": 1.02},
      {"variant": "A45U A87G", "self-cleavage": 0.737},
      {"variant": "A45U A87U", "self-cleavage": 0.734},
      {"variant": "U46A A83U", "self-cleavage": 0.277},
      {"variant": "U46A A83C", "self-cleavage": 0.323},
      {"variant": "U46A A83G", "self-cleavage": 0.378},
      {"variant": "A45U C85G", "self-cleavage": 0.847},
      {"variant": "A45G C85U", "self-cleavage": 1.06},
      {"variant": "A45U A83G", "self-cleavage": 0.847},
      {"variant": "A45C C61G", "self-cleavage": 0.6},
      {"variant": "A45G U46G", "self-cleavage": 0.643},
      {"variant": "A45U G54A", "self-cleavage": 0.939},
      {"variant": "C44U U72C", "self-cleavage": 0.779},
      {"variant": "C44G U65G", "self-cleavage": 0.688},
      {"variant": "C44G U65C", "self-cleavage": 0.597},
      {"variant": "C44U G76A", "self-cleavage": 0.87},
      {"variant": "C44U G76C", "self-cleavage": 0.725},
      {"variant": "U46A U47A", "self-cleavage": 0.867},
      {"variant": "U46A U47C", "self-cleavage": 0.532},
      {"variant": "C44U G53U", "self-cleavage": 0.831},
      {"variant": "C44U G53C", "self-cleavage": 0.658},
      {"variant": "A45C A87G", "self-cleavage": 0.554},
      {"variant": "A45C C62U", "self-cleavage": 0.895},
      {"variant": "A45C G68U", "self-cleavage": 0.604},
      {"variant": "U46A G53A", "self-cleavage": 0.741},
      {"variant": "U46A G53C", "self-cleavage": 0.877},
      {"variant": "U46A G68C", "self-cleavage": 0.633},
      {"variant": "U46A U60C", "self-cleavage": 0.752},
      {"variant": "U46A U60G", "self-cleavage": 0.939},
      {"variant": "A45U C58A", "self-cleavage": 0.539},
      {"variant": "A45G C57G", "self-cleavage": 1.01},
      {"variant": "C44G G80U", "self-cleavage": 0.0966},
      {"variant": "U46A G59A", "self-cleavage": 0.78},
      {"variant": "A45U C61G", "self-cleavage": 0.815},
      {"variant": "A45C U46A", "self-cleavage": 0.499},
      {"variant": "U46A G76U", "self-cleavage": 0.954},
      {"variant": "A45C A77U", "self-cleavage": 0.142},
      {"variant": "A45C A77G", "self-cleavage": 0.534},
      {"variant": "U46A G54U", "self-cleavage": 0.684},
      {"variant": "A45G U65C", "self-cleavage": 1.01},
      {"variant": "U46A C84G", "self-cleavage": 0.68},
      {"variant": "U46A A87C", "self-cleavage": 0.744},
      {"variant": "A45G G50A", "self-cleavage": 0.707},
      {"variant": "A45C G80C", "self-cleavage": 0.0504},
      {"variant": "C44G U79A", "self-cleavage": 0.388},
      {"variant": "U46A C58A", "self-cleavage": 0.57},
      {"variant": "U46A C58U", "self-cleavage": 0.482},
      {"variant": "A45G G52A", "self-cleavage": 0.875},
      {"variant": "A45G G52C", "self-cleavage": 1.01},
      {"variant": "A45G A51U", "self-cleavage": 0.944},
      {"variant": "A45U G68A", "self-cleavage": 0.712},
      {"variant": "A45C C48G", "self-cleavage": 0.369},
      {"variant": "C44U U79G", "self-cleavage": 0.727},
      {"variant": "A45G G82U", "self-cleavage": 0.475},
      {"variant": "U46A G81U", "self-cleavage": 0.271},
      {"variant": "A45G C86U", "self-cleavage": 0.806},
      {"variant": "A45G G81A", "self-cleavage": 0.435},
      {"variant": "C44U C48A", "self-cleavage": 0.779},
      {"variant": "A45G A56C", "self-cleavage": 1.3},
      {"variant": "A45U C49U", "self-cleavage": 0.706},
      {"variant": "A45U G81A", "self-cleavage": 0.259},
      {"variant": "C44U C85G", "self-cleavage": 0.673},
      {"variant": "A45C A56C", "self-cleavage": 0.712},
      {"variant": "C44U A78C", "self-cleavage": 0.113},
      {"variant": "A45C G76U", "self-cleavage": 1.01},
      {"variant": "U46A A71C", "self-cleavage": 1.11},
      {"variant": "U46A A71U", "self-cleavage": 0.95},
      {"variant": "A45G U69C", "self-cleavage": 0.72},
      {"variant": "A45G U69G", "self-cleavage": 1.21},
      {"variant": "C44U C75G", "self-cleavage": 0.106},
      {"variant": "C44U C75U", "self-cleavage": 0.157},
      {"variant": "C44U G67C", "self-cleavage": 0.755},
      {"variant": "A45C A51U", "self-cleavage": 0.72}
    ]}
  ]
}
